Experimental data published in the nanobody polyreactivity screen of Harvey et al. (2022).

Test: yeast display, Sf9 membrane polyspecificity reagent, FACS + sequencing; frameworks hold sequencing errors
Procedure, shortened: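 In a synthetic yeast display library (Saccharomyces cerevisiae BJ5465), nanobody expression was induced with galactose for 36–48 hours. FACS gates were set low and high (top ~1%) using anti-HA fluorescence for expression and streptavidin fluorescence for binding of the Sf9 membrane reagent. Each polyreactivity label is drawn from the gate of origin.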

| Sequence | polyreactivity (PSR sort gate) |
| --- | --- |
| QVQLVESGGGLVQAGGSLRLSCAYSGLTFTWYAMGWYRQAPGKERELVAGISSGTSTNYADSVKGRFSISRDTAKNTVYLQMNSMKAEATAVYYCNAKQLGKFDYWGQGTHVTVSS | low polyreactivity |
| QVQLVESGGGLVQAGGSLRLSCAASGRTFTKYAMGWYIQAPGKERELVASISTRGGSTYYADSVKGRFTISRDNAKNTVYLQMNSLKPEDTAVYYCNKGFRHRAPSSTPYDYWGQGTQVTVSS | high polyreactivity |
| QVQLVESGGGLVQAGGSLRLSCAASGFTFTSYAMGWYRQAPGKERELVAAITWDGGRTYYADSVKGRFTISRDNSKNTVYLQMNSLKPEDTAVYYCAKVYNPRQYDYWGQGTQVTVSS | low polyreactivity |
| QVQLVESGGGLVQAGGSLRLSCAASGNTFGYNAMGWYRQAPGKERELVASITWSGGSTYYADSVKGRFTISRDNAKNTVYLQMNSLKPEDTAVYYCNADVRFDYWGQGTQVTVSS | low polyreactivity |
| QVQLVESGGGLVQAGGSLRLSCAASGSTFVPNAMGWYRQAPGKEREFVAAIRVSCDNTYYADSVKGRFTISRDNAKNTDYLQMNSLKPEDTAVYYCAATGTVLGSVDYWGQGSQVTVSS | low polyreactivity |
| QVQLVESGGVLVQAGGSLRLSCAASGRTFNAYTMGWYRQAPGKERELVAAITSSGGNTYYADSVKGRFTITRDNGKNTVFLQMNSLKPEDTAVYYCNTVYLYGTHDYWGQGTQLTVSS | low polyreactivity |
| QVQLVESGGGLVQAGGSLRLSCAASGSTFTRYAMGWYRQAPGKERELVAGITGRGGSTYYADSVKGRFTISRDNAKNTVYFQMNSLKPEDTAVYYCNKRRRGVTTYDYWGQGTQVTVSS | high polyreactivity |
| LVQHVESGGGLVQAGGSLRLNCAASGRTFKPYAMGWYIQSPGKERELVAAISTRGGSTYYADSVKGRFTISRDNAKNSVFLQMNSLKPEDTALFYCAATQPGRDYDYWGQGTQVTVSS | low polyreactivity |
| QDQLEESGGGLVQAGGSLRLSCAASGRTFFHYAMGWYRQAPGKERELVAGISSGGRTTYADSVKGRFTISRDNAKNTVYLQMISLKPEDTAVYYCAASYIVWLTRGAPRKRFDYWGQGTQVTVSS | high polyreactivity |
| QVQLVESGGGLVQAGGSLRLSCAASGFTFYQYAMGWYRQAPGKERELVASISWSGGRTYYADSVKGRFTISRDNAKNTVYLQMNSLKPEDTAVYYCAARAYRIAGYDYWGQGTQVTVSS | high polyreactivity |
| QVQLVESGGGLVQAGGSLRLSCAASGGTFNRNAMGWYRQAPGKERELVAAISSSGGRTYYADSVKGRFTISRDNAKNTVYLQMNSLKPEDTAVYYCAAGRKGHGGAYDSWAQGTQVTVSS | high polyreactivity |
| QVQLVESGGGLVQAGGSLRLSCAASGLTFRYYTMGWYRQAPVKERELVAAISRGGSTTYADSVKGRFTISRVNAKNTVYLQMNSLKPEDTAVYYCAVRPGTWSNYYAGGKKYDYWGLGTQVTVSS | high polyreactivity |
| QVQLVESGGGLVQAGGSLRLSCAASGSIFESYAMGWYRQAPGKERELVADITYDGGITYYADSVKGRFTISRDNAKNTVYLQLNSLKPEDTAVYYCAAQAWWGYYSRGPMDYWGQGTQVTVSS | low polyreactivity |
| QVQLVESGGGLVQAGGSLRLSCAASGFIFSNNAMGWYRQAPGKERELVAVINGGGSTYYADSVKGRFTISRDNAKNTVYLQMNSLKPEDTAFYYCARKSWPKERRVDPGYDYWGQGTQVTVSS | low polyreactivity |
| QVQHVESVGGLLQAGCSLRLSCAPSGRIFGENAIGWYRQAPGKEREFLAVISISDASTYYADSVKGRFTISRDNAKNTGYLQMNSLKPDDTAVYYCAADLTDFLYVASDYWGQGTQVTVSS | low polyreactivity |
| QVQLVESGGGLVQAGGSLRLSCAASGFIFVRYAMGWYRQAPGKERELVASITRSGGSTYYADSVKGRFTISRDNAKNTVYLQMNSLKPEDTAVYYCNAGLLRRRMDYWGQGTQVTVSS | high polyreactivity |
| QVQLVESGGGLVQAGGTLRLICAASGSTFGPYDMGWYRQAPGKERELVADITSGGSTYYADSVKGRFTISRDNAKNTVYLQMISLKPEDTAVYYCAADRVWPYYQYDYWGQGTQVTVSS | low polyreactivity |
| QVQLVESGGGLVQAGGSLRLSCAASGPIFRGYAMGWYRQAPGKERELVARITSGGRTYYADSVKGRFTISRDNAKNTVYLQMNSLKPEDTAVYYWATVGRGYDERHNYWGQGTQVTVSS | high polyreactivity |
| QVQLVESGGGLVQAGGSLRLSCAASGRTFKSYAMGWYRQAPGKERELVAAISKRGGSTYYADSVKGRFTISRDNAKNTVYLQMNSLKPEDTAVYYCAADARYRSYSLLVRPGRYYYWGQGTQVTVSS | high polyreactivity |
| QVQLVESGGGLVQAGGSLRLSCAASGRIFGTYAMGWYRQAPRKERELVAAITQSARSTYYADSVKGRFTISRDNAKNTVYLQMNSLKPEDTAVYYCAAVGYYTKRRFGYWGQGTQVTVSS | high polyreactivity |
| QVQILESGGGLVQAGVSLRLSCAPSGSTFSRNAMAWYRQAPGKERELVAAISSSGGRTYYAESVKVRFTISRDNAKNTVYLQMNSLTPEDTAVYYCAAAFSLGMYWGQGTLVTVSS | high polyreactivity |
